In US20110319287A1, “MODULATOR ASSAY” (ADDEX PHARMA S.A., priority 2009, published 2011):

How the values were obtained:
[1] = target: T1, TL1A-activated DR3 receptor (Homo sapiens, UniProt Q93038); assay: TL1A-induced TRADD-EYFP relocation in HeLa TRADD DR3 recombinant cells (Example 3); type: cell-based; conditions: in the presence of 300 ng/ml TL1A; FIG. 17
T1 construct: (N); expressed in transfected cells; host or cells: HeLa Tet-On cells stably expressing TRADD-EYFP, transfected with pTRE2-DR3 (HeLa TRADD DR3)
T1 sequence (Q93038 with tags, fused parts or gaps P167L): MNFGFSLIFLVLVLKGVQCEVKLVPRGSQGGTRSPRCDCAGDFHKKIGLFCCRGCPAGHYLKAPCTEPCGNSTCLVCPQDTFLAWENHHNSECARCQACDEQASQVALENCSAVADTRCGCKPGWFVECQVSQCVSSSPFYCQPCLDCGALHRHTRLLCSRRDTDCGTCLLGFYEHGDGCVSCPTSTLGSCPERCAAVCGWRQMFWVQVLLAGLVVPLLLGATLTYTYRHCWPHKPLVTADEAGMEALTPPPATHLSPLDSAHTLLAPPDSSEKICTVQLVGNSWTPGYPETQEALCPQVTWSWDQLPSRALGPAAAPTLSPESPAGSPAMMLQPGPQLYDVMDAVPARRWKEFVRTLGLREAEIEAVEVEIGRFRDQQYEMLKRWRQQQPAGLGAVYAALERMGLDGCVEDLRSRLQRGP
From the text: (§1) In a further example of the present invention, a method involving the TL1A-activated DR3 receptor was developed. The TRADD-EYFP HeLa clones comprising the TRADD-EYFP reporter molecule transfected into HeLa cells as described in Example 1 was employed. The DR3 receptor (cDNA sequence shown in SEQ ID NO: 19 and encoded protein shown in SEQ ID NO: 20) which had been cloned in the vector pCR3.1 (Invitrogen) was transferred into the vector pTre2 (Clontech) using the Gateway® cloning technique with the primers Attb1 Forward primer (SEQ ID NO: 21) and Attb2 Reverse primer (SEQ ID NO: 22), yielding a pTRE2-DR3 expression vector (SEQ ID NO: 23). This expression vector was then transfected into the TRADD-EYFP HeLa clones to produce a double transformants designated HeLa TRADD DR3.
(§2) Monitoring and quantification of the TRADD-EYFP reporter molecule was conducted as described in Examples 1 and 2 above. […] The data of FIG. 17 are depicted graphically in FIG. 18.

[2] = target: T2, TL1A-activated DR3 receptor (Homo sapiens, UniProt Q93038, P167L); assay: as above; type: cell-based; conditions: in the presence of 300 ng/ml TL1A; FIG. 17
T2 construct: (N); expressed in transfected cells; host or cells: HeLa Tet-On cells stably expressing TRADD-EYFP, transfected with pTRE2-DR3 (HeLa TRADD DR3)
T2 sequence (Q93038 with tags, fused parts or gaps P167L): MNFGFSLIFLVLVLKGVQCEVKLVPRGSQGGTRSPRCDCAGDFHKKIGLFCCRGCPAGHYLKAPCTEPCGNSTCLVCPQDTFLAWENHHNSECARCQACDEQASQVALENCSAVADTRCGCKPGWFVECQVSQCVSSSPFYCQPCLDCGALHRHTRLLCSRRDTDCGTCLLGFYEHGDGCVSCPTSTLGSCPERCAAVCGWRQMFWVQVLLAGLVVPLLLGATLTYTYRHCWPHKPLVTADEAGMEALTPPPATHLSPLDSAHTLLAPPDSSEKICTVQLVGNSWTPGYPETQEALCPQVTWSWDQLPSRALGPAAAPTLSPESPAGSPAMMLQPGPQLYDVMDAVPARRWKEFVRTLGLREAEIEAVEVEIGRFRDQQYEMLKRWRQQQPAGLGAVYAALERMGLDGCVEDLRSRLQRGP
From the text: as §1, §2

[3] = tested on: TNF-induced TRADD relocalisation in HeLa TRADD DR3 cells; assay: TNF-induced TRADD-EYFP relocation in HeLa TRADD DR3 recombinant cells (Example 3); type: cell-based, human; conditions: in the presence of 100 ng/ml TNF; FIG. 19
From the text: as §1, §2

[4] = tested on: TNF-induced relocalisation of EYFP-TRADD (TNFR1-containing complex I) in HeLa cells; assay: TNF-mediated relocation of fluorescently tagged TRADD in Clone #49-E2 HeLa cells, 384-well (Example 2); type: cell-based, human; conditions: added instead of TNF; FIG. 12
Experimental: The following experimental procedure to detect the reporter molecule in the presence of absence of a “test” compound (or molecule, as described below) was conducted.
On day 1, 10^3 cells per well were plated in thin glass bottom 384 wells plate in 50 μl of culture media (DMEM glutamax, 10% FBS, peni-strep, geneticin, hygromycin). The cells were incubated overnight at 37° C. On day 2, media was aspirated, and 35 μl of warm DMEM, 2, 5% FBS, HEPES 10 mM added. Then, 15 μl of 4× the test compound diluted in DMEM, 2, 5% FBS, HEPES 10 mM was added to cells using a Biomek laboratory automation workstation (Beckman-Coulter). This was incubated at room temperature for 1.5 min. […] The cells were washed three times with PBS 1× using an Embla 384 Cell Washer (Molecular Devices). Cells were fixed by adding PBS 1×, 5% PFA+Hoescht 0.2 μg/ml using a Multidrop 384 dispensor (Thermo Scientific; 30 μl/well) followed by an incubation for 20 min at room temperature in the dark. After a further three washes of the cells with PBS 1× using the Embla 384 Cell Washer, 60 μl per well of PBS 1×, 1% peni-strep was added. The plate was covered with a transparent sealing film. Readings were then taken on the Scientific Cellomics ArrayScan HCS Reader automated microscope system as used in Example 1.

Molecule	IC50 on TL1A-induced relocalisation [1] [µg/mL]	dose-dependent inhibition of TL1A-induced relocalisation [2]	dose-dependent inhibition of TNF-induced relocalisation [3]	selectivity: relocalisation of the reporter molecule EYFP-TRADD effected by other compounds or molecules [4]
DcR3: DR3 inhibitor; Recombinant Human DcR3/TNFRSF6B/Fc Chimera from R&D Systems (protein, left off: a dimerising Fc or GST, Recombinant Human DcR3/TNFRSF6B/Fc Chimera from R&D Systems) VAETPTYPWRDAETGERLVCAQCPPGTFVQRPCRRDSPTTCGPCPPRHYTQFWNYLERCRYCNVLCGEREEEARACHATHNRACRCRTGFFAHAGFCLEHASCPPGAGVIAPGTPSQNTQCQPCPPGTFSASSSSSEQCQPHRNCTALGLALNVPGSSSHDTLCTSCTGFPLSTRVPGAEECERAVIDFVAFQDISIKRLQRLLQALEAPEGWGPTPRAGRAALQLKLRRRLTELLGAQDGALLVRLLQALRVARMPGLERSVRERFLPVH	1.41	dose-dependently inhibited	not	
CD40L: Fc [human]: CD40L [human] from Apotech Corporation (protein, left off: a dimerising Fc or GST, Fc [human]: CD40L [human] from Apotech Corporation) GDQNPQIAAHVISEASSKTTSVLQWAEKGYYTMSNNLVTLENGKQLTVKRQGLYYIYAQVTFCSNREASSQAPFIASLCLKSPGRFERILLRAANTHSSAKPCGQQSIHLGGVFELQPGASVFVNVTDPSQVSHGTGFTSFGLLKL				not effected
